Molecular target: 14-3-3β (UniProt P31946)
Assay: in vitro pull-down, immobilized phosphoprotein

binding against the reference (reference: FOXO3A with Ser253 (supD tRNA), sites S253)	binding against the reference (reference: FOXO3A with Ser413 (supD tRNA), sites S413)	Substance
stronger	–	FOXO3A (from UniProt O43524) FOXO3A with pSer253 (SepOTSλ)
–	stronger	FOXO3A (from UniProt O43524) FOXO3A with pSer413 (SepOTSλ)

From PMC6590076
